Molecular target: the molecule itself
Experiment: SDS-PAGE under non-reducing and reducing conditions with Western blot

B1: Epo-Fc/IHH (Epo-Fc with three inactivating point mutations in the FcRn-binding site of the Fc domain) (Fc fusion)
chain: APPRLICDSRVLERYILEAKEAENVTMGCAEGPRLSENITVPDTKVNFYAWKRMEVEEQAIEVWQGLSLLSEAILQAQALLANSSQPPETLQLHIDKAISGLRSLTSLLRVLGAQKELMSPPDTTPPAPLRTLTVDTFCKLFRVYANFLRGKLKLYTGEVCRRGDRGGSGGSVPRDCGCKPCICTVPEVSSVFIFPPKPKDVLTATLTPKVTCVVVDISKDDPEVQFSWFVDDVEVHTAQTQPREEQFNSTFRSVSELPIMAQDWLNGKEFKCRVNSAAFPAPIEKTISKTKGRPKAPQVYTIPPPKEQMAKDKVSLTCMITDFFPEDITVEWQWNGQPAENYKNTQPIMNTNGSYFVYSKLNVQKSNWEAGNTFTCSVLHEGLHNAHTEKSLSHSPGK
modifications: glycosylated (oligosaccharides cleaved by PNGase F)
- stoichiometry N: 2
